The record followed here is patent US20120114667A1.

The target of assay [1] is β1 integrin chain on HT29 cells (α5 null line) (human) (UniProt P05556). The experiment in a line: FACS on HT29 cells (no α5, β1 present), control antibody to α5β1.
The target of a further assay is Macaque α5β1 (Macaque). The assay can be described thus: FACS on macaque PBMC, isotype control.
For assay [2], the target named is human α5β1 integrin (human) (UniProt P08648). The assay can be described thus: FACS on human α5β1-transfected against untransfected 300.19 cells, negative control.
human α5β1 integrin (human), sequence (P08648 42-1049, chain 1 of 2): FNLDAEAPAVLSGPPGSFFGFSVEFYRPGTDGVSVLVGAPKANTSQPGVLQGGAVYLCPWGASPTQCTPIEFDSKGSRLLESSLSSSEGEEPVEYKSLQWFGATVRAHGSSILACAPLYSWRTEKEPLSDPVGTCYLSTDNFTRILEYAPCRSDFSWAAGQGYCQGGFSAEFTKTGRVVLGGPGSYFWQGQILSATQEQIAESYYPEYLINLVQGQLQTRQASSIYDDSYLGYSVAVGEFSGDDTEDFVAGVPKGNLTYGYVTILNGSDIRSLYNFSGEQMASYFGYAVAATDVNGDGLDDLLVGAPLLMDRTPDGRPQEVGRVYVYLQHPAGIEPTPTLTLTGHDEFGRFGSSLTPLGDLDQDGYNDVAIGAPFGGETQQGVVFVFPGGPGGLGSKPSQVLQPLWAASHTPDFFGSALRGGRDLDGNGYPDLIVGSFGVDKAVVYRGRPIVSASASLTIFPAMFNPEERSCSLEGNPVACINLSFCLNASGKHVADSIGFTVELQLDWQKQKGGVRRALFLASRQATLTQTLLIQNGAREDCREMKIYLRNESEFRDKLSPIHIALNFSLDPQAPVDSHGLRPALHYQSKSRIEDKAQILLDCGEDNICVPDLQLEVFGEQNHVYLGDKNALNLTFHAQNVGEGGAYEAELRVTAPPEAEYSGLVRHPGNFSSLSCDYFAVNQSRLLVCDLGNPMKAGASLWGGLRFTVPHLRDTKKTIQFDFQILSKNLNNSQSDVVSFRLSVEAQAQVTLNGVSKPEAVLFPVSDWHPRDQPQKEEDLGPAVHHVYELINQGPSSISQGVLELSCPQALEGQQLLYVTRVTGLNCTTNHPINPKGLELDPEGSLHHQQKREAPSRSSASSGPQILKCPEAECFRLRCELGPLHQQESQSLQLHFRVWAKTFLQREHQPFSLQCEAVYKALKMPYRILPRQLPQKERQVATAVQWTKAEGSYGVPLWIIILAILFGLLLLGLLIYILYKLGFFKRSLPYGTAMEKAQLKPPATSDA
human α5β1 integrin (human), sequence (P05556 21-798, chain 2 of 2, further chain): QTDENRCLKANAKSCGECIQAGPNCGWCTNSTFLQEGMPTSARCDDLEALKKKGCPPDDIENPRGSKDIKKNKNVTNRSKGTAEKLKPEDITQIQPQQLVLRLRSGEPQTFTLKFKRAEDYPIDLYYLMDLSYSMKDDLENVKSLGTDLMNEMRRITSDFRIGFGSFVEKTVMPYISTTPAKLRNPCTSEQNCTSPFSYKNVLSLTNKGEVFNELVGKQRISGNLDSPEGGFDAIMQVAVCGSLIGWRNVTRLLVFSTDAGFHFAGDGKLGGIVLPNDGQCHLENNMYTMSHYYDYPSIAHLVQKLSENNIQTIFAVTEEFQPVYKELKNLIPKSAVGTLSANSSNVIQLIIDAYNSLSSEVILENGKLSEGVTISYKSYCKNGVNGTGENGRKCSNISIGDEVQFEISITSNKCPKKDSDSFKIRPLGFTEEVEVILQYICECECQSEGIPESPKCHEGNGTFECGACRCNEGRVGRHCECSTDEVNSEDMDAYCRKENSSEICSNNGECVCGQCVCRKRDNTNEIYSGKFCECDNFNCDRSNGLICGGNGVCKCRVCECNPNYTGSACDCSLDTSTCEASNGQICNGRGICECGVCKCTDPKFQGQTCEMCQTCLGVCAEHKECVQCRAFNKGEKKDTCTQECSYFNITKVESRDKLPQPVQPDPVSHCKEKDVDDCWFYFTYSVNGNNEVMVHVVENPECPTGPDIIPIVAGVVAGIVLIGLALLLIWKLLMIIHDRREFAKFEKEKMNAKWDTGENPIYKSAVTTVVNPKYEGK
Assay [3] concerns the target β1 integrin chain on HT29 cells (α5 null line) (human) (UniProt P05556). The assay can be described thus: FACS on HT29 cells, isotype control.
In assay [4] the target is human α5β1 integrin (human) (UniProt P08648). The experiment in a line: FACS on human α5β1-transfected 300.19 cells, negative control.
The target in assay [5] is macaque β1 integrin chain on T cells (Macaque). The assay can be described thus: FACS on macaque PBMC, control antibody.
For assay [6], the target named is β1 integrin chain on HT29 cells (α5 null line) (human) (UniProt P05556). The assay can be described thus: FACS on HT29 cells, positive control.
In assay [7] the target is avb3 and avb5 integrins on A375M cells. The assay can be described thus: cell-based or functional assay.
The target in assay [8] is macaque αV integrin chain on T cells (Macaque). The assay can be described thus: FACS on macaque PBMC, control antibody.
The target of assay [9] is αv integrin chain on HT29 cells (human) (UniProt P06756). The experiment in a line: FACS on HT29 cells, positive control.
αv integrin chain on HT29 cells (human), sequence (P06756 31-1048): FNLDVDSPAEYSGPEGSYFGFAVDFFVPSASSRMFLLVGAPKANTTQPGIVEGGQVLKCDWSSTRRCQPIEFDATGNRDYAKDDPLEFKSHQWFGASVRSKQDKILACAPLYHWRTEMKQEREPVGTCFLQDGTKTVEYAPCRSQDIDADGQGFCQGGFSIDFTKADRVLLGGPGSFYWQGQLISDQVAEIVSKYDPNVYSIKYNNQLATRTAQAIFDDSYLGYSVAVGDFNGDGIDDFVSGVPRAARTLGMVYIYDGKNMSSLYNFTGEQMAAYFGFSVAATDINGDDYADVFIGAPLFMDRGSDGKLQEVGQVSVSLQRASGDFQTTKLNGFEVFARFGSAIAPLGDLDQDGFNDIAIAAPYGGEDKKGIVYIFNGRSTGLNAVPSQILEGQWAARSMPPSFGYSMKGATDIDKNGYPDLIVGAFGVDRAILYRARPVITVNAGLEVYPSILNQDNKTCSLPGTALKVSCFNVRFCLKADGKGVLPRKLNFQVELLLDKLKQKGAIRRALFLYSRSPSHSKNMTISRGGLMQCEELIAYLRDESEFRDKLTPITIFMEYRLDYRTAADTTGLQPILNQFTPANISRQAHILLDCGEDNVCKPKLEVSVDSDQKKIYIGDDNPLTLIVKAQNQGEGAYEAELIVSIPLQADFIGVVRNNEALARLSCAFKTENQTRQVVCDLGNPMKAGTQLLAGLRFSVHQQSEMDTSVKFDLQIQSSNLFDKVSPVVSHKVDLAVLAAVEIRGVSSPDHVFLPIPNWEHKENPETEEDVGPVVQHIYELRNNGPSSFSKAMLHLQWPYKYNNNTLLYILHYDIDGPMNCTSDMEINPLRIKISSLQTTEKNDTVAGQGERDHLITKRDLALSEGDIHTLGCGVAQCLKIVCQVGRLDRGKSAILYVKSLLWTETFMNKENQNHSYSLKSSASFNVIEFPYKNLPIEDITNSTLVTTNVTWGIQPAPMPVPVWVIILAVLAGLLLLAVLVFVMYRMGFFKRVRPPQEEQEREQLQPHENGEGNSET
The target in assay [10] is αvβ6 integrin on HT29 cells (human) (UniProt P06756). The experiment in a line: FACS on HT29 cells, positive control.
αvβ6 integrin on HT29 cells (human), sequence (P06756 31-1048, chain 1 of 2): as the sequence (P06756 31-1048) above
αvβ6 integrin on HT29 cells (human), sequence (P18564 22-788, chain 2 of 2, further chain): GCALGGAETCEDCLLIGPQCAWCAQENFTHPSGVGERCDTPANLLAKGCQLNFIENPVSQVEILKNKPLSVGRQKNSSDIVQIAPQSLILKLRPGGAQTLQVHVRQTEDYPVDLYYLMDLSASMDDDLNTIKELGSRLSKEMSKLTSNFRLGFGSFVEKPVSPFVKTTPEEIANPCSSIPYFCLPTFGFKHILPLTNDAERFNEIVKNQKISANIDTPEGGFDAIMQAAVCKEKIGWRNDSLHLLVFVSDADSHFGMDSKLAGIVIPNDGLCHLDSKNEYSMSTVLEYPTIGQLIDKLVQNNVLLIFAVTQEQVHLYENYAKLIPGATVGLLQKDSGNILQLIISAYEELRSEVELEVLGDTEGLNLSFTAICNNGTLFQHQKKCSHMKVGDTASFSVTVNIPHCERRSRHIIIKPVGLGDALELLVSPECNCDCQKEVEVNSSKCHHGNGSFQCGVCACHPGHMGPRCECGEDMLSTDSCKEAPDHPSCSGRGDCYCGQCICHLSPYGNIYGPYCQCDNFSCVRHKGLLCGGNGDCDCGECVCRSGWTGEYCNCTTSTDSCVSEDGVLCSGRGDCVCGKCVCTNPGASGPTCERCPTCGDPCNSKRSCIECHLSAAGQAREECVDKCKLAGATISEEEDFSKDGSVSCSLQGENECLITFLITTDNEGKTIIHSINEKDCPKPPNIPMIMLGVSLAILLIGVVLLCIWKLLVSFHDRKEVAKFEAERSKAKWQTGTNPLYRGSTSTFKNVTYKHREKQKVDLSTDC

β1 integrin chain on HT29 cells (α5 null line) (human), sequence (P05556 21-798): as the sequence (P05556 21-798, chain 2 of 2, further chain) above

In the case of mAb 1969 (antibody), the Binding Geomean in [1] was 2.69.

As to Human IgG2/4, in the assay with Macaque α5β1 (Macaque), the Geo Mean on Macaque T-cells IgG detection stood at 3.

In the assay with Macaque α5β1 (Macaque), Mouse IgG1 (antibody) came in with a Geo Mean on Macaque T-cells IgG detection of 2. The Ratio (α5β1 expressing cells / parental cells) in assay [2] was 0.9. Besides, the Binding Geomean in assay [3] turned out to be 2.55. The X Geo Mean in assay [4] worked out at 14.9.

For 4b4 anti beta1 (antibody), the Geo Mean on Macaque T-cells IgG detection in assay [5] came out at 141. This substance also gave a Binding Geomean in [6] of 362.

As for Human IgG4 (antibody), the Binding Geomean in assay [3] turned out to be 3.2.

As to L230 (antibody), in assay [7], the Osteopontin Adhesion (% inhibition) at 5 ug/ml, A375M cells came out at 97% and the Vitronectin Adhesion (% inhibition) at 5 ug/ml, A375M cells was 96%. In assay [8], this substance yielded a Geo Mean on Macaque T-cells IgG detection of 3. This substance registered a Binding Geomean in assay [9] of 294.

Human IgG2 (antibody): in assay [2], the Ratio (α5β1 expressing cells / parental cells) came out at 0.8. Moreover, the Binding Geomean in assay [3] turned out to be 2.84. The substance also showed a X Geo Mean in assay [4] of 12.

The substance MAB2077Z avb6 (antibody) displayed a Binding Geomean in assay [10] of 39.2.

In the case of Mouse IgG2a (antibody), the Binding Geomean in assay [3] turned out to be 10.2.
